The conditions of this data set: Carica papaya, Thermal, DSC, glycine 0.05M, reversible: No, whole UniProt chain shown.

A word on the Tm: it is the temperature at the midpoint of the melting transition.

B1: Papain wild type, P00784 (protein)
chain: MAMIPSISKLLFVAICLFVYMGLSFGDFSIVGYSQNDLTSTERLIQLFESWMLKHNKIYKNIDEKIYRFEIFKDNLKYIDETNKKNNSYWLGLNVFADMSNDEFKEKYTGSIAGNYTTTELSYEEVLNDGDVNIPEYVDWRQKGAVTPVKNQGSCGSCWAFSAVVTIEGIIKIRTGNLNEYSEQELLDCDRRSYGCNGGYPWSALQLVAQYGIHYRNTYPYEGVQRYCRSREKGPYAAKTDGVRQVQPYNEGALLYSIANQPVSVVLEAAGKDFQLYRGGIFVGPCGNKVDHAVAAVGYGPNYILIKNSWGTGWGENGYIRIKRGTGNSYGVCGLYTSSFYPVKN
As for B1, the Tm came out at 60.3 °C (pH 2.9), 78.5 °C (pH 3.8) and 81.8 °C (pH 4.1). Moreover, the “unfolding enthalpy (calorimetric)” value by setting is: (pH 2.9) 133 kcal/mol; (pH 3.8) 198 kcal/mol; (pH 4.1) 211 kcal/mol.
